In PMC4381055:

B1: rrnAP3 150 bp template, +2 Cy3 (dsDNA)
DNA 1: AAAATAGGCGTATCACGAGGCCCTTTCGTCTTCAAGAATTCGTCTTGACTCCATTGCCGGATTTGTATTAGACTGGCAGGGTTGAAGCTTATGTATCACCTGACGTCATGATGAACTCAGAAGTGAAACTACGTATATCCGATGGTAGTG
DNA 2: CACTACCATCGGATATACGTAGTTTCACTTCTGAGTTCATCATGACGTCAGGTGATACATAAGCTTCAACCCTGCCAGTCTAATACAAATCCGGCAATGGAGTCAAGACGAATTCTTGAAGACGAAAGGGCCTCGTGATACGCCTATTTT
modifications: C6-amine on non-template +2 T

Legend:
[1] = target: EcoRNAP sigma70 holoenzyme (Escherichia coli) (UniProt P0A7Z4+P0A8V2+P0A8T7+P0A800+P00579); experiment: stopped-flow Cy3 fluorescence enhancement; conditions: scale: fold fluorescence enhancement
[2] = target: EcoRNAP sigma70 holoenzyme (Escherichia coli, UniProt P0A7Z4;P0A8V2;P0A8T7;P0A800;P00579 1-329;1-1342;1-1407;2-91;1-613); experiment: 25 C, no CarD

| Molecule | binding signal [1] | apparent K (half saturation) [2] [nM] |
| --- | --- | --- |
| template lacking rrnAP3 promoter, Cy3 | 0.05 | – |
| B1 | – | 23 |
